Laboratory results published in publication PMC11244893 (bioRxiv, 2024).

Target: the molecule itself
Assay: SEC + other: diffusion NMR

B1: full-length, wild-type phosphate starvation response like protein-4 (PHL4) (natural protein, Arabidopsis, UniProt Q8GXC2 1-397, looked up)
chain: MIPNDDDDANSMKNYPLNDDDANSMKNYPLNDDDANSMENYPLRSIPTELSHTCSLIPPSLPNPSEAAADMSFNSELNQIMARPCDMLPANGGAVGHNPFLEPGFNCPETTDWIPSPLPHIYFPSGSPNLIMEDGVIDEIHKQSDLPLWYDDLITTDEDPLMSSILGDLLLDTNFNSASKVQQPSMQSQIQQPQAVLQQPSSCVELRPLDRTVSSNSNNNSNSNNAAAAAKGRMRWTPELHEVFVDAVNQLGGSNEATPKGVLKHMKVEGLTIFHVKSHLQKYRTAKYIPVPSEGSPEARLTPLEQITSDDTKRGIDITETLRIQMEHQKKLHEQLESLRTMQLRIEEQGKALLMMIEKQNMGFGGPEQGEKTSAKTPENGSEESESPRPKRPRNEE
- stoichiometry N: 4
